PMC10404369, “Epithelial cell adhesion molecule (EpCAM) regulates HGFR signaling to promote colon cancer progression and metastasis” (Journal of Translational Medicine, 2023)

How the values were obtained:
[1] = target: T1, HGFRECD-His recombinant protein (human, UniProt P08581 25-932); test: ELISA; HGFR-His recombinant protein (2 μg/ml) added to plates coated with EGF-like-domain deletion mutant-Fc (1 μg/ml); TMB colorimetric peroxidase assay; conditions: both partners purified
T1 construct: human HGFR (c-MET) recombinant protein, extracellular domain; also called HGFR-His; HGFR-His recombinant protein; source: bought: Sino Biological

[2] = target: T1, HGFRECD-His recombinant protein; test: pull-down; EpEX-Fc and HGFR-His recombinant protein (2.5 μg/ml); IP with Dynabeads Protein G, Western blotting with anti-6× His tag antibody; conditions: both partners purified

T1 sequence (P08581 25-932): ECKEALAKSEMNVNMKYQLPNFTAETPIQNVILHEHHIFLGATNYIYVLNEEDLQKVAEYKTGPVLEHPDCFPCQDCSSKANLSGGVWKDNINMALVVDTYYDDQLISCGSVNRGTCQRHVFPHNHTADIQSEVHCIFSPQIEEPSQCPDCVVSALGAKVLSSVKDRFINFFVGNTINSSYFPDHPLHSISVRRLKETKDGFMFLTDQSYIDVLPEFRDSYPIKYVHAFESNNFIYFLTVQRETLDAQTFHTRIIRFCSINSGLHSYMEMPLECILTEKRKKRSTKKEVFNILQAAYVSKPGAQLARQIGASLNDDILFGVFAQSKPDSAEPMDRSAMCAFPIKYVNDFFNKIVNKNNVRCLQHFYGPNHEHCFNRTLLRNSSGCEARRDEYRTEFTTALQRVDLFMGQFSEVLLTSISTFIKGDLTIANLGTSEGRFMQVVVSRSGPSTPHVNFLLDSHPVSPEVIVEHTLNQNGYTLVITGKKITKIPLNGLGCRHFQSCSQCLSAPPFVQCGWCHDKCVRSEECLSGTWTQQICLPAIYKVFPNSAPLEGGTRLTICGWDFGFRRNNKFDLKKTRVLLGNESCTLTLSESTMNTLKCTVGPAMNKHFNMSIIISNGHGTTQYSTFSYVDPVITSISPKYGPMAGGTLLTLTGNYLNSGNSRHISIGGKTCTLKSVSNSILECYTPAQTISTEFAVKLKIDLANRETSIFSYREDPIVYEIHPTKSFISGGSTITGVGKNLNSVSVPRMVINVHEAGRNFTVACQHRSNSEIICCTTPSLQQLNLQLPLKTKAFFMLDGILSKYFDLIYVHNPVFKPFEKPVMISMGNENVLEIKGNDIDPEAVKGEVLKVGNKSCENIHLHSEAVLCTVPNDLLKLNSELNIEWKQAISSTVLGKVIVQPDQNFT

binding result [1]	binding result [2]	Binder
binds	–	EpEX_(ΔEGFI)-Fc (Fc fusion, human, UniProt P16422 24-265, looked up, EpEX, extracellular domain of EpCAM, with EGF-like domain I (amino acids 27–59) deleted; also called EGF-like-domain deletion mutant-Fc) QEESKLAAKCLVMKAEMNGSKLGRRAKPEGALQNNDGLYDPDCDESGLFKAKQCNGTSMCWCVNTAGVRRTDKDTEITCSERVRTYWIIIELKHKAREKPYDSKSLRTALQKEITTRYQLDPKFITSILYENNVITIDLVQNSSQKTQNDVDIADVAYYFEKDVKGESLFHSKKMDLTVNGEQLDLDPGQTLIYYVDEKAPEFSMQGLK
–	binds	EpEX-Fc recombinant protein (Fc fusion, human, UniProt P16422 24-265, looked up, also called recombinant EpEX-Fc) QEECVCENYKLAVNCFVNNNRQCQCTSVGAQNTVICSKLAAKCLVMKAEMNGSKLGRRAKPEGALQNNDGLYDPDCDESGLFKAKQCNGTSMCWCVNTAGVRRTDKDTEITCSERVRTYWIIIELKHKAREKPYDSKSLRTALQKEITTRYQLDPKFITSILYENNVITIDLVQNSSQKTQNDVDIADVAYYFEKDVKGESLFHSKKMDLTVNGEQLDLDPGQTLIYYVDEKAPEFSMQGLK
binds	–	EpEX_(ΔEGFII)-Fc (Fc fusion, human, UniProt P16422 24-265, looked up, EpEX, extracellular domain of EpCAM, with EGF-like domain II (amino acids 66–135) deleted; also called EGF-like-domain deletion mutant-Fc) QEECVCENYKLAVNCFVNNNRQCQCTSVGAQNTVICSKLAAKSERVRTYWIIIELKHKAREKPYDSKSLRTALQKEITTRYQLDPKFITSILYENNVITIDLVQNSSQKTQNDVDIADVAYYFEKDVKGESLFHSKKMDLTVNGEQLDLDPGQTLIYYVDEKAPEFSMQGLK
